Assay results published in article PMC5397179.

B1: Biotinylated full length PcrA (Geobacillus stearothermophilus), wild type [modified: biotin; biotin] [Geobacillus stearothermophilus] / YvgS/HelD (SF1 helicase), Bacillus subtilis [B. subtilis 168 (endogenous in the cell … (parent)
chain 1: MNFLSEQLLAHLNKEQQEAVRTTEGPLLIMAGAGSGKTRVLTHRIAYLMAEKHVAPWNILAITFTNKAAREMRERVQSLLGGAAEDVWISTFHSMCVRILRRDIDRIGINRNFSILDPTDQLSVMKTILKEKNIDPKKFEPRTILGTISAAKNELLPPEQFAKRASTYYEKVVSDVYQEYQQRLLRNHSLDFDDLIMTTIQLFDRVPDVLHYYQYKFQYIHIDEYQDTNRAQYTLVKKLAERFQNICAVGDADQSIYRWRGADIQNILSFERDYPNAKVILLEQNYRSTKRILQAANEVIEHNVNRKPKRIWTENPEGKPILYYEAMNEADEAQFVAGRIREAVERGERRYRDFAVLYRTNAQSRVMEEMLLKANIPYQIVGGLKFYDRKEIKDILAYLRVIANPDDDLSLLRIINVPKRGIGASTIDKLVRYAADHELSLFEALGELEMIGLGAKAAGALAAFRSQLEQWTQLQEYVSVTELVEEVLDKSGYREMLKAERTIEAQSRLENLDEFLSVTKHFENVSDDKSLIAFLTDLALISDLDELDGTEQAAEGDAVMLMTLHAAKGLEFPVVFLIGMEEGIFPHNRSLEDDDEMEEERRLAYVGITRAEEELVLTSAQMRTLFGNIQMDPPSRFLNEIPAHLLETASRRQAGASRPAVSRPQASGAVGSWKVGDRANHRKWGIGTVVSVRGGGDDQELDIAFPSPIGIKRLLAKFAPIEKV
chain 2: MNQQDKEWKEEQSRIDEVLKELEKKERFLETSAGGLKHDIIGLRKSFWEDVKVNFDDAHEAIETMASIKQQAELLSDREHNHRRMDQQLKRIHQLKKSPYFGRIDFIENGEEQAERIYIGLASCLDEKEEHFLIYDWRAPISSLYYNYSPGKAEYEVPGETIEGEMVLKRQFMIKNGTLKAMFNTDMTIGDEMLQEVLSHHSDTQMKNIVSTIQKEQNQIIRNEKSKILIVQGAAGSGKTSAALQRVAYLLYRHRGVIDAGQIVLFSPNFLFNSYVSSVLPELGEENMEQATFQEYIEHRLGRKFKCESPFDQLEYCLTETKGGDFPTRLAGITWKAGLSFQQFINEYVTRLSSEGMIFKNIIFRGQKLITKEQIQSYFYSLDQNHSIPNRMEQTAKWLLSELNKLEKKERRKDWVVHEAELLDKEDYLDVYKKLQERKRFSESTFNDYQREQQLLAAIIVKKAFKPLKQAVRLLAFLDVTQLYLQLFSGWGGKFQHEKMDAIGELTRSAFTDNKLLYEDAAPFLYMQDLIEGRKKNTKIKHLFIDEAQDYSPFQMAYMRSIFPAASMTVLGDINQSIYAHTINGDQRMDACFEDEPAEYVRLKRTYRSTRQIVEFTKAMLQDGADIEPFNRSGEMPLVVKTEGHESLCQKLAQEIGRLKKKGHETIAVICKTAHQCIQAHAHMSEYTDVRLIHKENQPFQKGVCVIPVYLAKGIEFDAVLVYDASEEHYHTEHDRRLLYTACTRAMHMLAVFYTGEASPFVTAVPPHLYQIAE

Variants of: B1
Assay: pulldown quantified by mass spectrometry
Conditions: with YvgS/HelD (SF1 helicase), parent: 97, read off a plot

In order of falling screen value:
1. chain 1 K712A  9.5
2. chain 1 L714A  3.5
